Laboratory results: patent US20120009181A1, “Folate Receptor 1 Antibodies and Immunoconjugates and Uses Thereof” (published 2012)

B1: huFR1-65 (antibody, V domains shown)
VH: QVQLVQSGAEVAKPGASVKMSCKASGYTFTSYTMHWVKQRPGQGLAWIGYINPISGYTNYNQKFQGKATLTADKSSSTAYMQLNSLTSEDSAVYYCASGGAYGRKPMDYWGQGTSVTVSS
VL: EIVMTQSPATMSTSPGDRVSVTCKASQNVGPNVAWYQQKPGQSPRALIYSASYRYSGVPARFTGSGSGTDFTLTISNMQSEDLAEYFCQQYNSYPYTFGQGTKLEIKR
B2: huFR1-65-SMCC-DM1 (antibody, V domains shown)
VH: QVQLVQSGAEVAKPGASVKMSCKASGYTFTSYTMHWVKQRPGQGLAWIGYINPISGYTNYNQKFQGKATLTADKSSSTAYMQLNSLTSEDSAVYYCASGGAYGRKPMDYWGQGTSVTVSS
VL: EIVMTQSPATMSTSPGDRVSVTCKASQNVGPNVAWYQQKPGQSPRALIYSASYRYSGVPARFTGSGSGTDFTLTISNMQSEDLAEYFCQQYNSYPYTFGQGTKLEIKR
modifications: maytansinoid DM1 linked to the antibody through the SMCC linker; drug load and attachment residues not stated
B3: huFR1-21 (antibody, V domains shown)
VH: EVQLVESGGDVVKPGGSLKLSCAASGFTFSSYGMSWVRQTPGKGLECVATISSGGSYTYYSPGFQGRFTISRDKSKNTLYLQMSSLKAEDTAMYYCARDGEGGLYAMDYWGQGTSVTVSS
VL: DIQMTQSSSSLSVSVGGRVTITCKASDHINNWLAWYQQKPGKAPKLLISGATSLETGVPSRFSGSGSGKDYTLSISSLQPEDVATYYCQQYWSTPFTFGQGTKLEIKR
B4: huMov19 (antibody, V domains shown)
VH: QVQLVQSGAEVVKPGASVKISCKASGYTFTGYFMNWVKQSPGQSLEWIGRIHPYDGDTFYNQKFQGKATLTVDKSSNTAHMELLSLTSEDFAVYYCTRYDGSRAMDYWGQGTTVTVSS
VL: DIVLTQSPLSLAVSLGQPAIISCKASQSVSFAGTSLMHWYHQKPGQQPRLLIYRASNLEAGVPDRFSGSGSKTDFTLNISPVEAEDAATYYCQQSREYPYTFGGGTKLEIKR
B5: huMov19-SPP-DM1 (antibody, V domains shown)
VH: QVQLVQSGAEVVKPGASVKISCKASGYTFTGYFMNWVKQSPGQSLEWIGRIHPYDGDTFYNQKFQGKATLTVDKSSNTAHMELLSLTSEDFAVYYCTRYDGSRAMDYWGQGTTVTVSS
VL: DIVLTQSPLSLAVSLGQPAIISCKASQSVSFAGTSLMHWYHQKPGQQPRLLIYRASNLEAGVPDRFSGSGSKTDFTLTISPVEAEDAATYYCQQSREYPYTFGGGTKLEIKR
modifications: maytansinoid DM1 linked to the antibody through the SPP linker, 3.5-4 DM1 per antibody; attachment residues not stated
B6: huFR1-57 (antibody, V domains shown)
VH: EVQLVESGGGLVQPGGSRRLSCAASGFTFSSFGMHWVRQAPGKGLEWVAYISSGSSTISYADSVKGRFTISRDNSKKTLLLQMTSLRAEDTAMYYCAREAYGSSMEYWGQGTLVTVSS
VL: EIVLTQSPATLSVTPGDRVSLSCRASQNINNNLHWYQQKPGQSPRLLIKYVSQSVSGIPDRFSGSGSGTDFTLSISSVEPEDFGMYFCQQSNSWPHYTFGQGTKLEIKR
B7: huFR1-57-SMCC-DM1 (antibody, V domains shown)
VH: EVQLVESGGGLVQPGGSRRLSCAASGFTFSSFGMHWVRQAPGKGLEWVAYISSGSSTISYADSVKGRFTISRDNSKKTLLLQMTSLRAEDTAMYYCAREAYGSSMEYWGQGTLVTVSS
VL: EIVLTQSPATLSVTPGDRVSLSCRASQNINNNLHWYQQKPGQSPRLLIKYVSQSVSGIPDRFSGSGSGTDFTLSISSVEPEDFGMYFCQQSNSWPHYTFGQGTKLEIKR
modifications: maytansinoid DM1 linked to the antibody through the SMCC linker; drug load and attachment residues not stated
B8: huFR1-48 (antibody, V domains shown)
VH: QVQLVQSGAEVAKPGASVKLSCKASGYTFTNYWMQWIKQRPGQGLEWIGAIYPGNGDSRYTQKFQGKATLTADKSSSTAYMQVSSLTSEDSAVYYCARRDGNYAAYWGQGTLVTVSA
VL: DIQMTQSPSSLSVSVGERVTITCRASENIYSNLAWYQQKPGKSPKLLVYAATNLADGVPSRFSGSESGTDYSLKINSLQPEDFGSYYCQHFWASPYTFGQGTKLEIKR
B9: huFR1-49-SMCC-DM1 (antibody, V domains shown)
VH: QVQLQQSGAVVAKPGASVKMSCKASGYTFTNYWMYWIKQRPGQGLELIGAIYPGNSDTTYNQKFQGKATLTAVTSANTVYMEVSSLTSEDSAVYYCTKRHDYGAMDYWGQGTSVTVSS
VL: DIQMTQSPSSLSVSVGERVTITCRASENIYTNLAWYQQKPGKSPKLLVYTASNLADGVPSRFSGSGSGTDYSLKINSLQPEDFGTYYCQHFWVSPYTFGQGTKLEIKR
modifications: maytansinoid DM1 linked to the antibody through the SMCC linker; drug load and attachment residues not stated
B10: huFR1-48-SMCC-DM1 (antibody, V domains shown)
VH: QVQLVQSGAEVAKPGASVKLSCKASGYTFTNYWMQWIKQRPGQGLEWIGAIYPGNGDSRYTQKFQGKATLTADKSSSTAYMQVSSLTSEDSAVYYCARRDGNYAAYWGQGTLVTVSA
VL: DIQMTQSPSSLSVSVGERVTITCRASENIYSNLAWYQQKPGKSPKLLVYAATNLADGVPSRFSGSESGTDYSLKINSLQPEDFGSYYCQHFWASPYTFGQGTKLEIKR
modifications: maytansinoid DM1 linked to the antibody through the SMCC linker; drug load and attachment residues not stated
B11: huFR1-49 (antibody, V domains shown)
VH: QVQLQQSGAVVAKPGASVKMSCKASGYTFTNYWMYWIKQRPGQGLELIGAIYPGNSDTTYNQKFQGKATLTAVTSANTVYMEVSSLTSEDSAVYYCTKRHDYGAMDYWGQGTSVTVSS
VL: DIQMTQSPSSLSVSVGERVTITCRASENIYTNLAWYQQKPGKSPKLLVYTASNLADGVPSRFSGSGSGTDYSLKINSLQPEDFGTYYCQHFWVSPYTFGQGTKLEIKR

Tests used:
[1] = target: human folate receptor 1 (FOLR1) (human); assay: column head 'Apparent affinity (nM)'; method not restated (analyzed as described above: flow cytometry on FOLR1-expressing cells)
Chain of human folate receptor 1 (FOLR1) (human) (chain, as listed by the source limits assumed): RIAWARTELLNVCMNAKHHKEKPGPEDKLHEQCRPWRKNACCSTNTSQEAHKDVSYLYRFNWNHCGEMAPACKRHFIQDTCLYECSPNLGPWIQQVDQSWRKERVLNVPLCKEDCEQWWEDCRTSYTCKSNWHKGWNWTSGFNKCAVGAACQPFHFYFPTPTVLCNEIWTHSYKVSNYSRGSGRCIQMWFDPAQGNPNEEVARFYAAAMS

[2] = target: human folate receptor 1 (FOLR1) (human); assay: cell-based or functional assay
[3] = target: human folate receptor 1 (FOLR1) (human); assay: cell-based or functional assay; remark: listed apart in the source
[4] = target: human folate receptor 1 (FOLR1) (human); assay: cell-based or functional assay; remark: listed apart in the source

Binder	Kd [1]	huAb-smcc-DM1 activity on KB in vitro [2]	further results
B1	0.15 nM		
B2		0.1 nM	
B3			EC50 of ADCC activity on IGROV-1 cells [3]: 0.11 ng/mL
B4	0.06 nM		
B5			IC50, nM (n = 3), Ab-based; in vitro cytotoxicity on IGROV-1 cells [4]: 0.1 nM; IC50, nM (n = 3), Ab-based; in vitro cytotoxicity on JEG-3 cells [4]: 0.2 nM; IC50, nM (n = 3), Ab-based; in vitro cytotoxicity on KB cells [4]: 0.1 nM
B6	0.14 nM		
B7		0.1 nM	
B8	0.13 nM		
B9		0.1 nM	
B10		0.05 nM	
B11	0.08 nM		
